Experimental data taken from paper PMC12248280.

Molecular target: hDPP4-Fc (human DPP4 residues 39 to 766 fused at its C terminus to the Fc domain of human IgG) (human) (UniProt P27487)
Experiment: BLI

Sequence of UniProt P27487 (P27487 39-766): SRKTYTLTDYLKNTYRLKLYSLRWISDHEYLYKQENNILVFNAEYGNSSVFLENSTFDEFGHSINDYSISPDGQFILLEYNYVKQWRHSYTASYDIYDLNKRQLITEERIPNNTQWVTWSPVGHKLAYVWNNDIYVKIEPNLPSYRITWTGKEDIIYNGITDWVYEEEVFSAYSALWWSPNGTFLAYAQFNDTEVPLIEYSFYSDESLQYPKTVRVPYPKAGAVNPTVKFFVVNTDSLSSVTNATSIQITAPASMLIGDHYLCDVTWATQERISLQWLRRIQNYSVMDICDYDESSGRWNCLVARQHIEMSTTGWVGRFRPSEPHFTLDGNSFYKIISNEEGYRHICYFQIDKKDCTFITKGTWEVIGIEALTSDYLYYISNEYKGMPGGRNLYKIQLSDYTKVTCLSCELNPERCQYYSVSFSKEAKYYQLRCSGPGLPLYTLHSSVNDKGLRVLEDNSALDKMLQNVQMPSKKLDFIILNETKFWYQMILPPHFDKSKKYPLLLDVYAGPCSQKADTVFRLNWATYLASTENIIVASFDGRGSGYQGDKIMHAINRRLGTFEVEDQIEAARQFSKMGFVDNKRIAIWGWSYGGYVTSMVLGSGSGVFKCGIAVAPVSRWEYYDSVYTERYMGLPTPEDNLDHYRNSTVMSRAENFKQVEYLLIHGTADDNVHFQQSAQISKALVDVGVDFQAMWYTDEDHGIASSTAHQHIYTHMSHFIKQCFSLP

For “GD-BatCoV-S (GD-BatCoV S-trimer, GD-BatCoV-S-6P) (domain or fragment)”, the Kd was 5.3 nM.
